Assay: soluble on expression in E. coli; label from the status in PepcDB or PDB records

| Sequence | soluble on expression in E. coli |
| --- | --- |
| MAHHHHHHMVFHLNIFNKGKRQNLVSAYLNHFKKSYFSGVTSGSDCVNKSEVSSDNNNNNNNNNNKIAHNFFSKKYQRNFENNNLSENQENNKNIIYSGSNIFKNIYNTEMMSNNNTVDVNMMDNNPAARLEELRTIMKKNKIDVYILINSDEHNSEIINEKDKKIVKITNYSGADGILIVTKDKPILYVNALYELQAMNELDQNLFTLRISRIDNRDEIFETISSLEFNTIAFDGKNTSVVFYEKLRKALLNAYPKKKIVEKIIYNNNFDDVNKKDDENVLNFLVLEKSLVEIKDYPVNNKTLYIHDRKYNGACAGEKIDKLKQSLMYDIKNVDNLLLSELDEIAYLLNLRGYDYQYSPLFYSYLLFQFDREEQDFSKIVFFTTVKNLPADVKNLLEINKVIVKEYEEIVPYLRDVVIPSIPKHNDDNPDFKKYDISLSPYINLMIYKLFDRKNVLLQNSPVVKMKAVKNDVEIDNMKQAHILDGLALLQFFHWCEQKRKTKELFNETEMSLRHKVDYFRSTKKNFIFPSFSTISASGPNAAVIHYECTDKTNATIKPAIYLLDSGGQYLHGTTDVTRTTHFGEPTAEEKRIYTLVLKGHLRLRKVIFASYTNSSALDFIARENLFNNFMDYNHGTGHGVGLTLNVHEGGCSIGPVGGAPLKKNMVLSNEPGYYMKDKFGVRIENMQYVISKEITDTTEYLSFDDLTMYPYEK | not soluble |
| MAHHHHHHMVSNVADVRQINLTDSSNFLLMACDGLWDVVENEEATQFVRDFLSYTPDVGSSPEATKRALNNCCQKLAEFAVDRGSTDNVSVMLLFFHDVADVVAGFDKPVGAVVSPPASQVLSPRLTGPSRGIPFGSSMLDGGLHTSSGTSGTRRPSFGSVSSLHGRGRSIW | not soluble |
| MAHHHHHHMVVSLIGPLDSPYVQRTLLVAAYAGIQLKLVPIQIGRENETEEYRLNCHPMQRVPVMKTDEGYLFESNAMIRYLARTEVMLVSVSAGIDSAGANNEKIPHPQYPIPYAMYGHSLLESTQVDSWLDFAITRIDFYTRQFFAYEHKTGPKPAADMKTLLCKSLDGLERRVAYLKEACRALVQQSGSLTSRSVMTDEELVWNEEDYMASRATRDSRLSSVYNVAGSIRQRHMEKERQEREKQLMLIKKTTDDALGKEEGADDPHHPSRRPSVSRDSMAISATPRASVLMSARSTMGSAAPGVQRHDLLFLVGGSLTAADLVMAMSLHGVLCCQELKPVLTSKYPNLFKYYKSVLMLPVAAEVRKAIRLSIIKE | soluble |
| MAHHHHHHMWRRAACQAVTSRFFRPAVAASTASSSSALRESCRTGIIIGNPKQGMIDPIHVSWTDIAGSDTTPGARLAAGRVLAMLDMCAARTSQKAIDHQDCLTHERYLTCTVGVTNTMFSSPILHGDAVRLDGRLVCCGSSSMGIYIRFYRQSPSTRTETPAGHSFFTMVAITPDLKAAKVVPAIELTDPLDIELHNHYVKVRKLQEENKKNTAERLKRTLTTEEVQCSINQQKPIHARINSTRVEANRIFFTSCMNNNNTVFGGELMAWMEQHAVHCGRMFTGNRYVFTIGMHSVAFPEPVFATDWVTLEATVIYVRNTTMEVDVVLKAERKDAGTVITNRASFVLINNDDIGRKCAIPIGLELNGATQEELQQFMEARVRYHCSVARRDDFHASNLCTGTTKL | not soluble |
| MAHHHHHHMYRNLFDKLKDGPLKISILGSGNWASAISKVVGTNAKNNYLFENEVRMWIRDEFVNGERMVDIINNKHENTKYLKGVPLPHNIVAHSDLASVINDADLLIFIVPCQYLESVLASIKESESIKIASHAKAISLTKGFIVKKNQMKLCSNYISDFLNIPCSALSGANIAMICGALKNIITLACGFCDGLNLPTNSKSAIIRNGINEMILFGKGTVTLKYVYHMIKEKNMTNEFPLFTVLHKISFENEDPSSLLKTFMNNKINQLNL | not soluble |
| MAHHHHHHMYVFRFHISSFHSFLVNFLQPSRGVGEPSRLLDHLETHPSYMRRVTSTAVHRTVSSVLSPALLPSFNGTLLLSVCFASCSAAPVRNLYKRLGLDHKATSEEVKAAYRQRALECHPDVVDDNRKAQAEVDFRAVSEAYDVLIDPQKRKEHDKALGLERTVPPAKKQQEGEGVGCDSKGSFNRGVTRPRNRKPFVRGDADRNFREAFHGMSLDQVLFRERLRQRRMQKQMEEKAKEGDDGSPAGREESIRRVAAAAAERFAEKVRRQYGPGMLRHARVYTSLSRDPQPPPSDYMPFRPFHGWTVPNGVRTPPEPTLGPTAKVEDVKDVQLAEPAVGDASHQRKLPKHFPVVQAPDGSSLLREEAIACMERERRLPHNMGKLYSYHRPY | not soluble |

Source: the DeepSol protein solubility set
